One data set has as its target T1, CD40 (Homo sapiens, UniProt P25942).
T1 construct: human CD40 (CD40-IC, residues 216-277); expressed in transfected cells; host or cells: SFY526 yeast
T1 sequence (P25942 216-277): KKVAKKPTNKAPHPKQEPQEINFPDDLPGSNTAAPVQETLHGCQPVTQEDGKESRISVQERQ
The data set is described as follows: Two-hybrid test of MORT-1 binding (FIG. 1), CD40. Conditions: CD40-IC residues 216-277, FIG. 1. An excerpt:
To isolate proteins interacting with the intracellular domain of the FAS-R, the yeast two-hybrid system was used (Fields and Song, 1989). […] In this system, the genes for the candidate interacting proteins are cloned into separate expression vectors. In one expression vector, the sequence of the one candidate protein is cloned in phase with the sequence of the GAL4 DNA-binding domain to generate a hybrid protein with the GAL4 DNA-binding-domain, and in the other vector, the sequence of the second candidate protein is cloned in phase with the sequence of the GAL4 activation domain to generate a hybrid protein with the GAL4-activation domain. The two hybrid vectors are then co-transformed into a yeast host strain having a lacZ or HIS3 reporter gene under the control of upstream GAL4 binding sites. Only those transformed host cells (cotransformants) in which the two hybrid proteins are expressed and are capable of interacting with each other, will be capable of expressing the reporter gene. In the case of the lacZ reporter gene, host cells expressing this gene will become blue in color when X-gal is added to the cultures. […]
In FIG. 1, there is depicted the interaction of the proteins encoded by the Gal4 DNA binding domain and activation-domain constructs (pGBT9 and pGAD-GH) within transfected SFY526 yeasts as assessed by β-galactosidase expression filter assay. […]

Data set [1] deals with Fas/APO1 cytotoxicity (p55-Fas chimera) in 293-EBNA cells. It counts as cell-based, human. The conditions noted are these: co-transfection. As for the experimental part:
In brief, 293-EBNA cells, MCF7 human breast carcinoma cells and HeLa HtTA-1 cells were grown in Dulbecco's modified Eagle's minimal essential medium supplemented with 10% fetal calf serum, nonessential amino acids, 100 U/ml penicillin and 100 μg/ml streptomycin. Cell tissue culture dishes (5×10^5 293-EBNA cells, 3×10^5 s MCF7 cells or 3×10^5 HeLa cells in 6-cm dishes) were transiently transfected, using the calcium phosphate precipitation method, with the cDNAs of the indicated proteins together with the β-galactosidase expression vector. In the experiments presented in FIGS. 14A-D and 15, each dish was transfected with 3.5 μg of the indicated MACH construct and 1.5 μg of pSV-β-gal. In the experiments presented in FIGS. 16A-D and 17-19, each dish was transfected with 2.5 μg of the indicated MACH or MORT1 construct (or, as control, empty vector) and 1.5 μg of pSV-β-gal. The cells were rinsed 6 to 10 h after transfection. The 293-EBNA and MCF7 cells were incubated for a further 18 h without additional treatment. […] The extent of cell death at the end of the incubation periods was assessed by determination of β-galactosidase expression, as described by Kumar et al, 1994. […]
In particular, FIGS. 16A-D show morphology of 293-EBNA cells in which cell death was induced by transient expression of a chimera comprised of the extracellular domain of the p55-R (amino acids 1-168) fused to the transmembrane and intracellular domains of Fas/APO1 (amino acids 153-319) (p55-Fas chimera) (FIGS. 16A and 16B), or by expression of the p55-R (FIGS. 16C and 16D), and of cells that were protected from these cytotoxic effects by their simultaneous transfection with MACHα1 (C360S) (FIGS. 16B and 16D). […] FIG. 17 illustrates the quantification of death induced in 293-EBNA cells by their transfection with p55-Fas chimera or with p55-R, together with an empty vector, a MORT1 deletion mutant lacking the MACH-binding region (MORT1 (92-208)), or MACHα molecules containing a nonfunctional CED3/ICE region. […] Data are from at least two independent experiments and are expressed as in FIGS. 14A-F and 15.

B1: MORT-1: Mediator of Receptor-induced Toxicity; protein binding the intracellular domain of FAS-R, SEQ ID NO:2 (protein)
chain: VNQAPECRFGGGILGPLGKRRDLARASEPRTEGARRAGPQPRPLADPAMDPFLVLLHSVSSSLSSSELTELKFLCLGRVVKRKLERVQSGLDLFSMLLEQNDLEPGHTELLRELLASLRRHDLLRRVDDFEAGAAAGAAPGEEDLCAAFNVICDNVGKDWRRLARQLKVSDTKIDSIEDRYPRNLTERVRESLRIWKNTEKENATVAHLVGALRSCQMNLVADLVQEVQQARDLQNRSGAMSPMSWNSDASTSEAS
In the case of B1, in the data set with CD40, the “binding to CD40 in two-hybrid test” value is listed as “not”.

B2: MACHα1 (C360S): MACHα1 mutant in which the catalytic cysteine Cys360 is replaced by Ser (protein)
chain: MDFSRNLYDIGEQLDSEDLASLKFLSLDYIPQRKQEPIKDALMLFQRLQEKRMLEESNLSFLKELLFRINRLDLLITYLNTRKEEMERELQTPGRAQISAYRVMLYQISEEVSRSELRSFKFLLQEEISKCKLDDDMNLLDIFIEMEKRVILGEGKLDILKRVCAQINKSLLKIINDYEEFSKERSSSLEGSPDEFSNGEELCGVMTISDSPREQDSESQTLDKVYQMKSKPRGYCLIINNHNFAKAREKVPKLHSIRDRNGTHLDAGALTTTFEELHFEIKPHDDCTVEQIYEILKIYQLMDHSNMDCFICCILSHGDKGIIYGTDGQEAPIYELTSQFTGLKCPSLAGKPKVFFIQASQGDNYQKGIPVETDSEEQPYLEMDLSSPQTRYIPDEADFLLGMATVNNCVSYRNPAEGTWYIQSLCQSLRERCPRGDDILTILTEVNYEVSNKDDKKNMGKQMPQPTFTLRKKLVFPSD
Take B2: the “protection against Fas/APO1 cytotoxicity (p55-Fas chimera)” value in data set [1] is on record as “protected”.

Source of the values: patent publication US7799901B2, “Modulators of the function of FAS receptors and other proteins” (Yeda Research and Development Co. Ltd., priority 1995, dated 2010).
